Measured values reported in US20030124114A1.

Biological target: hepatitis A virus (HAV) particles (hepatitis A virus)
Test: cell-based or functional assay

Q: Which HAV infectivity (neutralization) does the source give for D1muc-Fc fusion protein (IgVmuc-hIg) here?
A: 2 logs
